The text below walks through data of a protein production outcome set (Wang et al. 2014).
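Further: failed if final PepcDB status was selected cloned or expressed and not failed if soluble or beyond.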

The nature of this series: label from the status in PepcDB records.
On to “MTSKKNSDVIYKSSSNILNEMRAGLIKGAGQDMERIKKRPLIAIANSHSELTTGHAHLAGLGAKVKQGIIAAGGEFAEFNVPAPCDGIAMAHDGMRYVLAQRDLIADIVETHVRSQAFDAVVFIAGCDKINPGMMMAMGRLDLPSLFLAGGPGQMNIRNTPTFNGNIDHGNYFNSPLEFKETFNCASCGACEFMGTANTFQCLAEALGICLPGSANIPAWHSDKLAAARATGEHIVHLFKEGITARQIMTKEAFNNALVMNMAIGGSTNAALHLPAIAHSAGIEMDIKAFETVDHIPTLLAISPNGPYGVQDLWAAGGMPAVMKVMQSDLDTSCLTVTGLPLQATIDNATILNPKVIPERSKPNRQEPGITVLRGNLAPEGCVIKQAGVKPELMYTSGPAICFDSEDDAINMIQDGKLKEGQVIVLRYMGPKGAPGMPEMLGATLALKVAGLSSASLITDGRFSGATSGPCVGHITPEASNGGFIAFIEDGDIITVDIKNRSIHCDVSDEEIEKRKQNWAPTIKPVAFGFMERYRKHVKTASEGAILD”, for which the protein production result is given as “failed”.

Turning to “MFKNNDFIYIEYTAKIKDTGEIVDTTNEEEAKKANIYDETRNYGPRLVILGENRLIKGLEEALYNFNLNEEKTIEIPPEKAYGERDNSKIKIVPLGELRRQGITAVPNRVLRLSDGSLAVIRSVSGGRVVLDLNHPLAGRTLVYNVKVVKVLNNAKDKIMALIERRFSSKYANGFNVELDDGKKSVRITIPKDLYLVEDLQINVYSLAYEIVNYVLADYTVEVLQQYNKSTFSSS”, the protein production entry is recorded as “failed”.

Regarding “TTESLYAFSRKLAGTAALDDVLWATAYQIALMLKVRVVLLLPEQGRIAVKAGYPPEDQLDPADLAAANWAWENDRVAGRGSDTLPGAKRLFLPMRTGRGPIGVIGIDDDRAGALLTPDQRRLLDALTDQGALAIERVHLVEDMDRVKR”, the protein production result is listed as “failed”.

In the case of “MLSKIVDINAARQNIDMKVKLLSLNKRTIKNDRGETVYYYGIIGDETGTVPFTAWTFPPAVRVGDVIEIRSCYSNIYNGKIRIYIDGRSEVILKPDVEMEVKRSSDLVKIRDVSLSTPYVSVIGKITGIHKKEYESDGTTKSVYQGYIEDDTARIRISSFGKQLQDSDVVRIDNARVAQFNGYLSLSVGDSSRIESVNVNIPEKPRHIFISEIRSPVGGITIVGFVVSVGQGSRIFTKCSVCRRIVEDGTCKDHPKAPVYPDIFGYFSISDGTGTITCYINSDSFLPYAGISQDQFRRDAYSMNPNSLIKKNLLGKCISVSGDLRSQDDRIVMNVQSMKAISAEDNREIESIIEEEFQ”, the protein production result is on record as “failed”.

For the sequence “MRSVVSFNEGWSFHEGFGQRLLETFDTAKSVSLPHTAVELPFSYFDETSYQRAFTYQKVLRWLPEFEGREVSLVFDAAMADSVVYLNGEEIIAHKDGYTPFEARLTGKLVKGENLVTVKIDGSENPDIPPFGGRIDYLTYAGIYRDVWLKVTDPVSIRNLKIETTDVLRPEKSATIRVDIANPEGRSFSATVTATLKQADGTVVATAATETIGSRTTLSFGGLTGIALWDITDPKLYDVTVELRTEHGSDRISTRFGFRTAEFTPEGFLLNGKPLKLRGLNRHQAFPYVGYAAGRSAQERDADIMKTVLKCNIVRTSHYPQSKWFLDRCDAIGLLVFEEIPGWQHIGDADWQQESIKNVRRMIERDWNHPSIIIWGVRINESQDDHDFYAETNRLARELDSTRQTGGVRYLTESELLEDVYTMNDFILGNEELPGANRPRTALRAQQENTGLSHKVPYLITEFNGHMHPTKIYDQEQRQAEHVRRHLEVLNAAYGDPDISGAIGWCMFDYNTHKDFGSGDRICYHGVMDMFREPKFAAYAYISQCDPSEEIVMKPVTFWARGERNIGGVLPLIILTNCDEVELQYGALSKRIGPDRENYPHLPHPPVVLDHRHFTADELGTWGLEWIDGTFTGYIGGEPVASLTLAADPLPTTLEVVADSSTLRARERDSTRVIIRALDQRGQRLPFMNDSISLKVHGPARIVGPTNVPLQGGTAGFWLEATGFTGEITVEAISTRFAPVTLGVTAA”, the protein production result is reported as “failed”.

As for “MKNILKVFNTTILALIIIIATFSNSANAADSGTLNYEVYKYNTNDTSIANDYFNKPAKYIKKNGKLYVQITVNHSHWITGMSIEGHKENIISKNTAKDERTSEFEVSKLNGKIDGKIDVYIDEKVNGKPFKYDHHYNITYKFNGPTDVAGANAP”, the protein production entry is reported as “not failed”.

“MAKIDALAPQYSRIILLGHSAGGMIVRDAYLLAAGAYLDQPSRGAWWSKVESVLLFASINRGFRPYATATWALGMALMKLVSLQWLLLKPPSWFTLGWLMELEKGSFFVTDLRLSWMRHFHERDDEHRPFVVQFLGDIDGVVAREDVRDTEAFANSYTVTIEGADHSNLFDPAAPPGAAGFMRIMEVFRNPDPQLHEPEQAGELPATGPGRVVFVLHGIRDGNSGWVTDIAEAIEQQAKSDGQGKPLAAACSGHESPVLVDRSTYGWFSAIKFALPWVRRGNLAWFLDRYSYHVARNPDVQFHFVGHSNGTYILGTSLLEVSSLKFDRVYLAGSVLPREFPWQRMMLRRQVATVANQCSSEDWPVGGLCRGLHLIGFRDVGTGGVDGFDELRDLPTQPQTLWFKGDHGKPLQRPNQPNIVNYVLASHIATPLLSAPTGADLCERPSFWFRARMYGFALLTALGVGAAFYGAWWGFTHDHEGLVIAGILLLYFVLNTI”: the protein production result is reported as “failed”.

Regarding “MNTTKRILILLLLALITGCAMHTTRNPSFLEGKRLIAEGRLEEGLGKLEQAAREEPDDREVGATLARERDTIIGQILFEADNARLAGNLDQAEQNYQRVLNIRASSERAREGLDAVDLERRHIVLVNQAKEALAHGDVDGAEKIVRGVLADNPMQSEARQLIKALSEQIARAEMSELSLITEFSKPITMEFRDTSLKTMFELISRTAGINFVFDRNVQQEATASIFVRDNSIEDVLKLMLLTNQLAYKVLNSNTLLIYPDTPAKQKDYQELVVRSFHVANTDVKQMVAMIRGLVKARDIYVNEKLNLFVIRDTLEMIRLVERLVAINDFPDPEVMLDVVVLEVKRDSTLDLGPNMPTSVTFSAVPGIGTPAQAAADSVVKMSMIKNTGFEGLRSFTISNQARIDFGRTLTNADVLANPRIRVKSREKAKIHIGNKEPVFTVTNTANVGSAASATYIDVGLKFEVEPVVRTNNEVTLKALLEVSSNLGEKRSGSGENAATAIVIGTRTAETVLELRDGETQVLAGLIQDDLSRVRSGIAGLTDIPVLGDIFSKQVRKHNKTEIILLITPHIVRNVIQPNHFESEFYSGTASAAGKLPVTIRKTAPRSLAMESSNSASDGGYMSLGRARSAGLFGAAPDLFEEAVTQAREASPSLTLRVPESVAGGREFTATVRLVTQDPMLSGELNLTYDPDTLELVDGGEKSGMRSLKLGRDQSTGMTAVLRFKVISTNATSTEIALQNLQVRDETGQPVEVNLPPAASIRIQ”, the protein production result was “failed”.

In the case of “MLIVIGYAVVILAVVGSFIGLGGHLGALYQPFELTLIAGAAVGAFMAGNSRKSLGLVAKAIPEAFRSSPYSKDVYMELMALLYVLLNKARREGLMAIESHIEDPLSSPIFNEYPRIMKDAKLMEFITDYLRIMISGNMSSFEIETLMDEEIETYRHEREVPTHALQQVADALPAFGIVAAVLGVIKALAAVDQPPAILGDLISKAMVGTFLGVLLAYGFVAPMAARIERRTSESVKVLECIKVTLLASMNGYPPQLAVEFGRKVLFSAVRPSFGELEEHVRQAKSAATGRA”, the protein production result was “failed”.

As for “MNPGAYAVPSSAQGWTGTESIGKSSAVNHHRDDGGQEMAGALRKMAVYLGLVEDDRYDHRYADEYDDFEDFDEPLDERPSRNRSPRDDSRNNAVTDSSDHSPSRNERRSPAPAPATADLARITTLHPRTYNEARTIGEHFREGIPVIMNLTEMVDSDAKRLVDFAAGLIFGLHGSIERVTNKVFLLSPANVEVTAEDKARIAERGFFNQS”, the protein production entry is given as “failed”.

In the case of “MKNEGKKGTEQAKKPEKTKITENEINGNESGKQSFEVDRRSVYRCVQCGTCRSVCPVFDVVGWESANTRGRMLIIKSLLEGRPPSEDMLPSLASCTTCGICAVKCPAGVKPPKVVEAARAQLVKCGITTEAQKNLKSTIMTYGNSFGETRDRKHWLSEVERSQLPEKSDYVYFVGCFDSYRYPEFAKKTFGILQQFGVTLLPDEQCCASPLLRTGFKEDAEKVMKHNLEQIRKVGAHTIITSCAGCYTTLKNNYPEELKVISLPEFLVEHLEELNLKKLDLTVTYHDPCHLGRHNKVYDAPRKVIQAICTLKEMKYIKENARCCGGGGGVRTGYPDISLELARNRLKDVPEGVDYIVTSCPLCVRNLRDAGGDIEVIDIVELVAMAME”, the protein production entry is on record as “failed”.

“GNPEIKGRRRQIAQEIAYEDTSSQIKHASAVVSNPKDIAVAIGYMPEKYKAPWIIAMGVNLRAKRIIAEAEKYGVPIMRNVPLAHQLLDEGKELKFIPETTYEAVGEILLYITSLNAQNLENKNINQFDNL”: the protein production entry was “not failed”.
